The labels stand for the following.
B1: L1b (peptide)
peptide: HGIVG
modifications: triazole (positions not given here); not fully specified (bridges); also: 1,4-triazole macrocycle, ring places not given here, propargylglycine click handle, place not given here, biotinylated (biotin NovaTag resin), site not given here
notes: Second HPLC fraction; also called HGIVG f2
B2: L5a (peptide)
peptide: VEVYP
modifications: triazole (positions not given here); not fully specified (bridges); also: 1,4-triazole macrocycle, ring places not given here, propargylglycine click handle, place not given here, biotinylated (biotin NovaTag resin), site not given here
notes: also called VEVYP f1
B3: L1a (peptide)
peptide: HGIVG
modifications: triazole (positions not given here); not fully specified (bridges); also: 1,4-triazole macrocycle, ring places not given here, propargylglycine click handle, place not given here, biotinylated (biotin NovaTag resin), site not given here
notes: It is one of two HPLC fractions of the same mass; also called HGIVG f1
B4: L6 (peptide)
peptide: VTVPY
modifications: triazole (positions not given here); not fully specified (bridges); also: macrocycle closed by 1,4-triazole, propargylglycine click handle, other ring residues not given here
notes: also called VTVPY
B5: L8 (peptide)
peptide: TDNFY
modifications: triazole (positions not given here); not fully specified (bridges); also: macrocycle closed by 1,4-triazole, propargylglycine click handle, other ring residues not given here
notes: also called TDNFY
B6: L5b (peptide)
peptide: VEVYP
modifications: triazole (positions not given here); not fully specified (bridges); also: 1,4-triazole macrocycle, ring places not given here, propargylglycine click handle, place not given here, biotinylated (biotin NovaTag resin), site not given here
notes: also called VEVYP f2
B7: L3a (peptide)
peptide: GEVVP
modifications: triazole (positions not given here); not fully specified (bridges); also: 1,4-triazole macrocycle, ring places not given here, propargylglycine click handle, place not given here, biotinylated (biotin NovaTag resin), site not given here
notes: also called GEVVP f1
B8: L7a (peptide)
peptide: VQVPY
modifications: triazole (positions not given here); not fully specified (bridges); also: 1,4-triazole macrocycle, ring places not given here, propargylglycine click handle, place not given here, biotinylated (biotin NovaTag resin), site not given here
notes: also called VQVPY f1
B9: L7b (peptide)
peptide: VQVPY
modifications: triazole (positions not given here); not fully specified (bridges); also: 1,4-triazole macrocycle, ring places not given here, propargylglycine click handle, place not given here, biotinylated (biotin NovaTag resin), site not given here
notes: also called VQVPY f2
B10: L3b (peptide)
peptide: GEVVP
modifications: triazole (positions not given here); not fully specified (bridges); also: 1,4-triazole macrocycle, ring places not given here, propargylglycine click handle, place not given here, biotinylated (biotin NovaTag resin), site not given here
notes: also called GEVVP f2
B11: L4b (peptide)
peptide: VEVPY
modifications: triazole (positions not given here); not fully specified (bridges); also: 1,4-triazole macrocycle, ring places not given here, propargylglycine click handle, place not given here, biotinylated (biotin NovaTag resin), site not given here
notes: also called VEVPY f2
B12: L4a (peptide)
peptide: VEVPY
modifications: triazole (positions not given here); not fully specified (bridges); also: 1,4-triazole macrocycle, ring places not given here, propargylglycine click handle, place not given here, biotinylated (biotin NovaTag resin), site not given here
notes: also called VEVPY f1

Ends that are not written are not given here.

The first assay concerns the target T1, His6-tagged human KRas Isoform 4B (residues 1-169) (human, UniProt P01116-2 1-169).
T1 construct: Expressed in E. coli BL21(DE3), purified on Ni-NTA; also called KRas protein; WT KRas protein; not shown: His6 tag from the PQE80 vector
The experiment in a line: multi-well sandwich ELISA; ligand on Neutravidin plate, KRas 0-300 µM; footnote b: poorly resolved. The protocol: (§1) A 96-well Pierce Neutravidin Plate was washed with binding buffer (3×5 minutes at RT) before loading plate with a 1 μM solution of either blank (biotin-PEG₅-NHAc) (singly) or biotinylated PCC ligand (in triplicate). The plate incubated for two hours before washing with binding buffer (3×5 minutes). Blocking buffer was added to each well and the plate blocked for one hour before undergoing washing with binding buffer (3×5 minutes). Each well was loaded with either binding buffer or KRas solution (0→300 μM), and the plate was incubated for 30 minutes. Plate washing with binding buffer (3×5 minutes) preceded incubating the plate with a (1000:1) dilution of 1° antibody (ab) rabbit anti-Ras (CST #3965) in ab buffer for thirty minutes. The plate was washed with binding buffer (3×5 minutes), loaded with a (2000:1) dilution of 2° ab goat anti-rabbit, HRP-linked ab (CST #7074) in ab buffer, and incubated for an additional thirty minutes. The plate was rinsed with binding buffer (3×5 minutes), TBS (1×5 minutes), loaded with a (1:1) mixture of TMB Peroxidase Solution and TMB Peroxidase Solution B, and developed with occasional agitation for 8-12 minutes. After quenching the enzymatic reaction with 1M H₂SO_{4(aq)} (100 μL) the plate was read at λ=450 nm within ten minutes. The data was double background corrected using the ab only absorbance and the dummy ligand absorbance, plotted using Prism GraphPad 7 (Sigmoidal 4PL mode with the Hill coefficient set=1), and an EC₅₀ value was calculated.
(In an ELISA, binding on a coated surface is turned into a signal by an enzyme label.)
With B1, the EC50 (usually the concentration that produces a half-maximal response) was found to be 0.76 µM. This lies in the sub-micromolar range.

In the case of B2, the midpoint of the response, the EC50, lay at 3.72 µM.

The molecule B3 came in with an EC50 of 1.65 µM. This EC50 is about 2.3-fold lower than that of the molecule before.

B4 came in with an EC50 of 159 µM.

The target in another assay is T1, His6-tagged human KRas Isoform 4B …. The assay is described as follows: B-RAP surface immunofluorescence assay; ligand on barcode via SAC-DNA, KRas titrated 0-400 µM. The protocol:
After extraction the data is background corrected. The background signal arises from (a) non-specific binding of the primary and secondary antibodies (independent of [KRas]), but can vary across different barcode stripes), and (b) non-specific binding of KRas protein ([KRas] dependent). Background (a) was assessed by measuring the average signal in the null protein well for each stripe. Background (b) was assessed by measuring the average fluorescence for the dummy ligand (Biotin* probe) that was in each well. The background subtracted data was then graphed in Graphpad Prism 7 and fitted to a sigmoidal curve (Hill coefficient=1).
A pre-fabricated PDMS template was aligned onto the DNA barcode microchip, and the microchip was taped into a 10 cm petri dish. The wells on the platform were wet with 50 μL PBST before filling with blocking buffer and placing into a 37° C. incubator for 1 hr. Concurrently, 40 μL 1% BSA in PBS solutions containing 750 nM of a SAC-DNA conjugate and 3.75 μM of one biotinylated PCC ligand or biotin-A₂₀-Cy3 blank were prepared for each SAC-DNA conjugate. The biotinylated ligands were allowed to complex with the SAC protein for one hour before pooling the SAC-DNA-ligand solutions (final [SAC-DNA-ligand conjugates]=50 nM). The blocking buffer was aspirated and each well was loaded with the SAC-DNA-ligand conjugates cocktail for hybridization with the DNA barcode at 37° C. for one hour. The wells were washed with PBST (3×) before loading serially diluted solutions of KRas protein in protein buffer (0 to 400 μM). After shaking at RT for one hour, the wells were rinsed with PBST (5×), making sure to pipet up/down with the first addition of PB ST. A (100:1) dilution of CST rabbit anti-Ras Ab (#39655) in 1° ab buffer was added to each well before shaking at RT for one hour. After rinsing the wells with PBST (3×), the wells were loaded with a (200:1) dilution of Abcam goat anti-rabbit-Alexafluor 647 linked ab (ab150079) in 2° ab buffer before shaking at RT for one hour. A final rinse of the wells with PBST (3×) proceeded peeling off the PDMS slab from the barcode microchip and dipping the barcode into the following solutions: PBS, (1:1) PBS: MQ H₂O, MQ H₂O (2×). After being spun dry, the barcode was read on the Genepix (635 nm, PMT 600, PWR 40% (60 W); 532 nm, PMT 450, PWR 15% (23 W)).
Molecule B5 showed an EC50 of 2.8 µM.

Molecule B6 showed an EC50 of 7.8 µM.

With B1, the EC50 was 1.33 µM. Compared with the last molecule, the EC50 is about 5.9-fold lower.

B2 registered an EC50 of 5.23 µM. Compared with the last molecule, the EC50 is about 3.9-fold higher.

With B3, the EC50 is 0.97 µM. This EC50 lies about 5.4-fold lower than the previous one.

Turning to B4, a half-maximal effect (EC50) was put at 18.9 µM.

The target is the same in a further assay. The assay is described as follows: B-RAP immunofluorescence, 10 µM KRas well, pixel-by-pixel along the barcode lane.
B4: the “Avg F635 (full centroid)” value stood at 17800, the “Avg F635 (full lane)” value came to 16000, the “avg F635 (left part centroid)” value came to 15600 and the “avg F635 (middle part centroid)” value was determined as 19400. Besides, the “avg F635 (right part centroid)” value worked out at 18500.

A further assay has the same target. The experiment in a line: multi-well sandwich ELISA; ligand on Neutravidin plate, KRas 0-300 µM. The protocol: as §1
As to B5, the response was half-maximal at 25.6 µM (EC50). This counts as double-digit micromolar.

B6 gave an EC50 of 6.87 µM.

For the molecule B7, the EC50 was determined as 7.78 µM.

In the case of B8, the EC50 was 25.8 µM.

B9: the EC50 amounted to 44.2 µM.

For a further assay the target is unchanged. The assay is described as follows: barcoded rapid assay microchip, fitted curves of FIG. 6B (Hill coefficient 1), triplicate.
For B5, the EC50 worked out at 8.44 µM. In other words, the single-digit micromolar range.

In turn, B10 registered an EC50 of 19.4 µM.

In turn, B1 came in with an EC50 of 12.2 µM. Against the preceding molecule, the EC50 is about 1.6-fold lower.

B7 gave an EC50 of 53.3 µM.

The molecule B11 registered an EC50 of 32.7 µM.

In turn, B3 came in with an EC50 of 16.2 µM.

With B12, a half-maximal response (EC50) required 19.6 µM.

Turning to B4, the EC50 was determined as 16 µM. The EC50 values of the last two molecules are within 1.5-fold of each other.

On to B8, for which the midpoint of the response, the EC50, lay at 31.5 µM. Against the preceding molecule, the EC50 is about 2-fold higher.

Consider B9, for which the EC50 was 30.3 µM.
